Experimental data as given in the supplement of paper PMC7877785.
± gives the uncertainty stated by the source.

Assay: self-splicing fitness, log relative to wild type (ln ratio); higher = more splicing; Tetrahymena group I intron in knt gene, E. coli kanamycin selection, DiMSum; sequences stand for … in CUCUCU…GGAGGGAAAAGUUAUCAGGCAUGCACCUGGUAGCUAGUCUUUAAACCAAUAGAUUGCAUCGGUUUAAAAGGCAAGACCGUCAAAUUGCGGGAAAGGGGUCAACAGCCGUUCAGUACCAAGUCUCAGGGGAAACUUUGAGAUGGCCUUGCAAAGGGUAUGGUAAUAAGCUGACGGACAUGGUCCUAACCACGCAGCCAAGUCCUAAGUCAACAGAUCUUCUGUUGAUAUGGAUGCAGUUCACAGACUAAAUGUCGGUCGGGGAAGAUGUAUUCUUCUCAUAAGAUAUAGUCGGACCUCUCCUUAAUGGGAGCUAGCGGAUGAAGUGAUGCAACACUGGAGCCGCUGGGAACUAAUUUGUAUGCGAAAGUAUAUUGAUUAGUUUUGGAGUACUCGUGGUCG
Method in brief: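 Pooled colonies went to amplicon sequencing on an Illumina HiSeq 2500 after six replicate transformations. The plates were LB agar with 100 μg/mL carbenicillin, 50 μM IPTG and 0.2% rhamnose, with or without 25 μg/mL kanamycin, incubated overnight at 37°C or 30°C. The E. coli BL21(DE3) library had all eight P1ex-region intron nucleotides randomised, the intron placed in the knt kanamycin-resistance gene on pET-22b(+). DiMSum fitness is the error-weighted combination of replicate fold changes, kanamycin against none, normalised to wild type.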

Sequence	self-splicing fitness (ln) (30 °C)	self-splicing fitness (ln) (37 °C)
AAGAAGCAAUAUUACGGAAU	-1.67 ± 0.12	-1.85 ± 0.2
CGAUAGCAAUAUUACGGAGU	-2.09 ± 0.16	-3.36 ± 0.32
UGAUAGCAAUAUUACGUACU	0.125 ± 0.1	-0.524 ± 0.11
AGCUAGCAAUAUUACGCAUC	-2.95 ± 0.36	
GGUCAGCAAUAUUACGAUGC	-0.354 ± 0.091	0.43 ± 0.11
CAGGAGCAAUAUUACGUUAG	-1.45 ± 0.084	-0.918 ± 0.12
AGCAAGCAAUAUUACGCCGA	-0.81 ± 0.15	-0.63 ± 0.17
GCCGAGCAAUAUUACGGGCC	-3.59 ± 0.32	-1.99 ± 0.41
AAACAGCAAUAUUACGCGCG	-1.2 ± 0.067	-0.673 ± 0.081
GUAGAGCAAUAUUACGCUCA	-0.751 ± 0.1	-0.0338 ± 0.16
AACUAGCAAUAUUACGAGGC	-3.35 ± 0.2	-2.62 ± 0.35
GUCAAGCAAUAUUACGACAA	-3.81 ± 0.4	-2.58 ± 0.27
GCUAAGCAAUAUUACGCUGC	-3.12 ± 0.34	
AAUCAGCAAUAUUACGGCGG	-1.05 ± 0.1	0.206 ± 0.14
CAAAAGCAAUAUUACGCAGU	-4.31 ± 0.24	-3.64 ± 0.27
AGCAAGCAAUAUUACGCAAC	-3.99 ± 0.31	
GAUCAGCAAUAUUACGGGGA	-1.61 ± 0.12	-0.776 ± 0.12
UGGUAGCAAUAUUACGGUAG	-2.53 ± 0.2	-0.912 ± 0.14
UAUCAGCAAUAUUACGUUGC	-3.53 ± 0.18	-2.37 ± 0.15
AUUCAGCAAUAUUACGUUUU	-2.06 ± 0.09	-0.724 ± 0.091
GACGAGCAAUAUUACGCUCG	-1.59 ± 0.35	-1.6 ± 0.33
AUGAAGCAAUAUUACGAACC	0.0578 ± 0.14	0.124 ± 0.17
CAUAAGCAAUAUUACGUGAU	-3.26 ± 0.16	-2.41 ± 0.16
GGCGAGCAAUAUUACGGGGA	-2.39 ± 0.2	-2.29 ± 0.29

Sequence	self-splicing fitness (ln) (30 °C)	self-splicing fitness (ln) (37 °C)
CACGAGCAAUAUUACGUACU	-2.77 ± 0.16	-2.54 ± 0.27
UUUAAGCAAUAUUACGUGCA	-1.06 ± 0.12	-0.0552 ± 0.15
GCGGAGCAAUAUUACGUUGA	-2.63 ± 0.32	-2.31 ± 0.32
CACCAGCAAUAUUACGUGGG	-3.41 ± 0.095	-3.03 ± 0.12
UCCCAGCAAUAUUACGCACA	-1 ± 0.071	-0.318 ± 0.095
UGCUAGCAAUAUUACGGGUG	-1.79 ± 0.098	-1.3 ± 0.11
UACAAGCAAUAUUACGUUUA	-1.33 ± 0.07	-0.605 ± 0.072
GAAGAGCAAUAUUACGGCGA	-1.57 ± 0.2	-0.931 ± 0.25
GCAGAGCAAUAUUACGCCUA		-2.09 ± 0.3
UGACAGCAAUAUUACGCGGA	-1.75 ± 0.12	-1 ± 0.097
AGGGAGCAAUAUUACGCGAA	-1.94 ± 0.4	-1.48 ± 0.29
CAAGAGCAAUAUUACGAGCC	-4.42 ± 0.34	-2.31 ± 0.32
AACCAGCAAUAUUACGUCAA	-1.38 ± 0.062	-1.06 ± 0.074
GGAAAGCAAUAUUACGCCCA	0.064 ± 0.16	0.325 ± 0.23
ACAUAGCAAUAUUACGACGU	0.079 ± 0.081	0.0804 ± 0.083
CCCAAGCAAUAUUACGAAAU	-3.19 ± 0.25	-2.35 ± 0.18
GGGCAGCAAUAUUACGAAAG	-3.58 ± 0.28	-2.92 ± 0.35
AUCAAGCAAUAUUACGGCAG	-1.58 ± 0.085	-1.55 ± 0.12
GAUUAGCAAUAUUACGACAG	-3.57 ± 0.29	-1.1 ± 0.23
UAGGAGCAAUAUUACGCGCC		-1.03 ± 0.37
AGGGAGCAAUAUUACGCAGU	-2.41 ± 0.47	-1.44 ± 0.33
GUGAAGCAAUAUUACGAGAC	-2.62 ± 0.19	-0.955 ± 0.12
GUAGAGCAAUAUUACGUACA	-0.971 ± 0.11	-1.12 ± 0.17
AUAAAGCAAUAUUACGUAGG	-2.93 ± 0.12	-1.51 ± 0.15

Sequence	self-splicing fitness (ln) (30 °C)	self-splicing fitness (ln) (37 °C)
AAUUAGCAAUAUUACGUCAA	-2.11 ± 0.17	-0.791 ± 0.22
ACGAAGCAAUAUUACGACGA	-1.04 ± 0.097	-0.181 ± 0.12
GGCCAGCAAUAUUACGGUCG	-1.2 ± 0.14	0.113 ± 0.14
GGUCAGCAAUAUUACGGUUC	0.308 ± 0.096	-0.214 ± 0.1
GUUGAGCAAUAUUACGUCAG	-2.67 ± 0.17	-2.86 ± 0.31
CCACAGCAAUAUUACGGGGC	-3.95 ± 0.14	-2.43 ± 0.16
UCACAGCAAUAUUACGCAGA	-2.54 ± 0.12	-2.16 ± 0.14
CUUCAGCAAUAUUACGGGAA	-1.22 ± 0.097	-2.08 ± 0.1
AUCCAGCAAUAUUACGGGGC	-2.89 ± 0.14	-2.82 ± 0.26
GAAGAGCAAUAUUACGUCUC	-2.37 ± 0.37	-1.19 ± 0.49
GUAUAGCAAUAUUACGACAG	-2.58 ± 0.19	-1.9 ± 0.25
GCAUAGCAAUAUUACGGACC	-0.439 ± 0.1	-0.576 ± 0.093
AGUCAGCAAUAUUACGUUAG	-3.63 ± 0.17	-1.43 ± 0.12
ACACAGCAAUAUUACGUCGU	-2.67 ± 0.11	-1.58 ± 0.12
AAGCAGCAAUAUUACGAUGA	-0.809 ± 0.078	-0.909 ± 0.083
AAUAAGCAAUAUUACGACGU	0.233 ± 0.057	0.618 ± 0.072
AGUAAGCAAUAUUACGGUAA	-2.63 ± 0.28	-1.68 ± 0.15
CUAGAGCAAUAUUACGGUGC	-3.31 ± 0.26	-2.32 ± 0.37
UCACAGCAAUAUUACGAGCA	-1.28 ± 0.081	0.102 ± 0.089
AGGUAGCAAUAUUACGUCCA	-0.144 ± 0.015	-0.214 ± 0.035
GUUCAGCAAUAUUACGUCAU	-0.56 ± 0.083	-0.0298 ± 0.09
CUCUAGCAAUAUUACGUUCU	-3.1 ± 0.15	-3.47 ± 0.22
UUUUAGCAAUAUUACGAUUA	-0.349 ± 0.16	0.0391 ± 0.13
CAUUAGCAAUAUUACGUACU	-3.11 ± 0.18	-1.8 ± 0.15

Sequence	self-splicing fitness (ln) (30 °C)	self-splicing fitness (ln) (37 °C)
CGUAAGCAAUAUUACGGCUG	-0.231 ± 0.062	-0.177 ± 0.095
CGCAAGCAAUAUUACGACCU	-0.793 ± 0.092	-0.711 ± 0.12
UCGAAGCAAUAUUACGAGUU	-3.31 ± 0.15	-2.04 ± 0.21
CGACAGCAAUAUUACGUUAA	-3.04 ± 0.22	-2.19 ± 0.18
CCUCAGCAAUAUUACGGGUG	-2.04 ± 0.06	-0.955 ± 0.07
UAUAAGCAAUAUUACGGCGG	0.309 ± 0.2	-0.0854 ± 0.25
CAGCAGCAAUAUUACGUAUA	-2.42 ± 0.18	-2.81 ± 0.29
CAAAAGCAAUAUUACGCUUC	-3.84 ± 0.33	-1.99 ± 0.24
UGCCAGCAAUAUUACGUCUU	-2.22 ± 0.18	-1.86 ± 0.21
GACUAGCAAUAUUACGGACC	-1.77 ± 0.38	-0.714 ± 0.39
GAAUAGCAAUAUUACGGUCU	-0.677 ± 0.084	-0.0473 ± 0.097
ACGCAGCAAUAUUACGAGUU	-3.67 ± 0.13	-1.6 ± 0.11
UGGUAGCAAUAUUACGACCA	-1.07 ± 0.18	-1.02 ± 0.2
AGAGAGCAAUAUUACGCUUG	-2.97 ± 0.3	-2.46 ± 0.35
GAGUAGCAAUAUUACGGCAU	-0.177 ± 0.089	0.37 ± 0.11
CUAGAGCAAUAUUACGAUAA	-2.85 ± 0.21	-1.3 ± 0.23
ACUAAGCAAUAUUACGCCUC	-2.41 ± 0.21	-1.64 ± 0.34
AAACAGCAAUAUUACGAGCG	-1.93 ± 0.079	-0.668 ± 0.095
UGUCAGCAAUAUUACGACUC	-1.12 ± 0.14	0.256 ± 0.16
CUGUAGCAAUAUUACGUGUA	-4.12 ± 0.3	-2.05 ± 0.21
GACCAGCAAUAUUACGAAUG	-1.82 ± 0.071	-1.49 ± 0.088
GUCGAGCAAUAUUACGAUAC	-0.265 ± 0.28	-0.381 ± 0.24
CUAGAGCAAUAUUACGAUUA	-2.49 ± 0.23	-2.26 ± 0.23
AGCAAGCAAUAUUACGCGCG	-1.54 ± 0.072	-0.145 ± 0.09
